For test [1], the target named is V domain of programmed cell death 6-interacting protein (ALIX V) (human) (UniProt Q8WUM4).
For test [2], the target named is N-terminal domain of clathrin (CLTC NTD) (human) (UniProt Q00610).
Test [3] addresses E3 ubiquitin-protein ligase NEDD4 WW4 domain (human).
Test [4] concerns the target E3 ubiquitin-protein ligase NEDD4 WW2 domain (human).

E3 ubiquitin-protein ligase NEDD4 WW2 domain (human), sequence (P46934 whole entry, the tested form may be a part): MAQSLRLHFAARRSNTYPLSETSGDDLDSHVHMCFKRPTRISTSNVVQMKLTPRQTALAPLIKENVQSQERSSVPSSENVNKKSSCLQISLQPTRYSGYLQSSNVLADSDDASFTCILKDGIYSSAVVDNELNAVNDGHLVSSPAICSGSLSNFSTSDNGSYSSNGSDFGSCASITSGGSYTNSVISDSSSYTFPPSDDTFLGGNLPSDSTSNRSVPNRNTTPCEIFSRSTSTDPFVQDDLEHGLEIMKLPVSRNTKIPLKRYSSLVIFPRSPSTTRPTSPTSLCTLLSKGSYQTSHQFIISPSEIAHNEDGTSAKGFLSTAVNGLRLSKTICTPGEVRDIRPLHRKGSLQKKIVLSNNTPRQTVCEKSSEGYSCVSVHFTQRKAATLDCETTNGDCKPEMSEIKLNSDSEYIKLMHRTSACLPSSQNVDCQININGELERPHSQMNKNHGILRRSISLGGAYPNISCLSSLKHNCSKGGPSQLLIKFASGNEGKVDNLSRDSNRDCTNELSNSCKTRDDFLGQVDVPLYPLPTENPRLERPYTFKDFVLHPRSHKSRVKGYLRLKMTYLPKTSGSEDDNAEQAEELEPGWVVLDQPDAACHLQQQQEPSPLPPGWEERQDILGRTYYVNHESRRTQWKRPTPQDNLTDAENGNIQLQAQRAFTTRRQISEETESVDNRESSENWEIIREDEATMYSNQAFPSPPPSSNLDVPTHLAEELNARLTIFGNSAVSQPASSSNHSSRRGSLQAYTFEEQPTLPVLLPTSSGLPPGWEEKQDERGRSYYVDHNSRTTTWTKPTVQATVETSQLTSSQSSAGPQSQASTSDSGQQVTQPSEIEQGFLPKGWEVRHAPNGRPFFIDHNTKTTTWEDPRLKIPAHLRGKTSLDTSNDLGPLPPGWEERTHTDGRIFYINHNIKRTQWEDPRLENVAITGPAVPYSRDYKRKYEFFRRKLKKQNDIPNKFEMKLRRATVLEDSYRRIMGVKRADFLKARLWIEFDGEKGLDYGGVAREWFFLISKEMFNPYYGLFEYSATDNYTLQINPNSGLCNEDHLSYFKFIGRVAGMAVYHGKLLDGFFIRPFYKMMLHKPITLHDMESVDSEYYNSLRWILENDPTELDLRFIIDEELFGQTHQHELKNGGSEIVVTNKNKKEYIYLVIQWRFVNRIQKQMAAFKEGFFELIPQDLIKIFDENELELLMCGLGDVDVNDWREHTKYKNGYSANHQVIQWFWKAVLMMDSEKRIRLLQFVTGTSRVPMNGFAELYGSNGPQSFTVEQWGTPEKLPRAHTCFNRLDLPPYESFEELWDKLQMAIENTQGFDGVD
E3 ubiquitin-protein ligase NEDD4 WW4 domain (human), sequence (P46934 whole entry, the tested form may be a part): as above
V domain of programmed cell death 6-interacting protein (ALIX V) (human), sequence (Q8WUM4 whole entry, the tested form may be a part): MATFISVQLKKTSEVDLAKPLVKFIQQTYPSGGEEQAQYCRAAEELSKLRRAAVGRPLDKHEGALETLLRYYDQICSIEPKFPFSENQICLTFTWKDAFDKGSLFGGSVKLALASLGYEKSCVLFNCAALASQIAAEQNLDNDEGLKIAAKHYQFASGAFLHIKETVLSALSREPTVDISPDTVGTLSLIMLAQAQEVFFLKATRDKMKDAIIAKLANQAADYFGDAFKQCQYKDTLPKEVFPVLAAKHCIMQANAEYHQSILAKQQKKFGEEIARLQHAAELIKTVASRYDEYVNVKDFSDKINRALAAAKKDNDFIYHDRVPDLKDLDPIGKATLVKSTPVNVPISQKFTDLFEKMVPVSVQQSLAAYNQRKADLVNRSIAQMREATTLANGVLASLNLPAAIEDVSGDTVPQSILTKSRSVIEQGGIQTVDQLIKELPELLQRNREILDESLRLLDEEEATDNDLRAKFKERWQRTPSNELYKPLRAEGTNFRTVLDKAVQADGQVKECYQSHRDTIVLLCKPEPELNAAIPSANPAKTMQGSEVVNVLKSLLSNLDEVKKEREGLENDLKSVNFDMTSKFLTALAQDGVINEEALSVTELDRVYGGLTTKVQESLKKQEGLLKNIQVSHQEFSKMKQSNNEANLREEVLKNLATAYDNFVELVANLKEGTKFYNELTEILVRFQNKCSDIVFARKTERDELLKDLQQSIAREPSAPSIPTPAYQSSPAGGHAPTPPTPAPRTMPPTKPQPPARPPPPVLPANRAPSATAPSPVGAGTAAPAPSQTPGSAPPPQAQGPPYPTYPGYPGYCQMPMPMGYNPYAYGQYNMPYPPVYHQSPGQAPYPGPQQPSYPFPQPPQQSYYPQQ
N-terminal domain of clathrin (CLTC NTD) (human), sequence (Q00610 whole entry, the tested form may be a part): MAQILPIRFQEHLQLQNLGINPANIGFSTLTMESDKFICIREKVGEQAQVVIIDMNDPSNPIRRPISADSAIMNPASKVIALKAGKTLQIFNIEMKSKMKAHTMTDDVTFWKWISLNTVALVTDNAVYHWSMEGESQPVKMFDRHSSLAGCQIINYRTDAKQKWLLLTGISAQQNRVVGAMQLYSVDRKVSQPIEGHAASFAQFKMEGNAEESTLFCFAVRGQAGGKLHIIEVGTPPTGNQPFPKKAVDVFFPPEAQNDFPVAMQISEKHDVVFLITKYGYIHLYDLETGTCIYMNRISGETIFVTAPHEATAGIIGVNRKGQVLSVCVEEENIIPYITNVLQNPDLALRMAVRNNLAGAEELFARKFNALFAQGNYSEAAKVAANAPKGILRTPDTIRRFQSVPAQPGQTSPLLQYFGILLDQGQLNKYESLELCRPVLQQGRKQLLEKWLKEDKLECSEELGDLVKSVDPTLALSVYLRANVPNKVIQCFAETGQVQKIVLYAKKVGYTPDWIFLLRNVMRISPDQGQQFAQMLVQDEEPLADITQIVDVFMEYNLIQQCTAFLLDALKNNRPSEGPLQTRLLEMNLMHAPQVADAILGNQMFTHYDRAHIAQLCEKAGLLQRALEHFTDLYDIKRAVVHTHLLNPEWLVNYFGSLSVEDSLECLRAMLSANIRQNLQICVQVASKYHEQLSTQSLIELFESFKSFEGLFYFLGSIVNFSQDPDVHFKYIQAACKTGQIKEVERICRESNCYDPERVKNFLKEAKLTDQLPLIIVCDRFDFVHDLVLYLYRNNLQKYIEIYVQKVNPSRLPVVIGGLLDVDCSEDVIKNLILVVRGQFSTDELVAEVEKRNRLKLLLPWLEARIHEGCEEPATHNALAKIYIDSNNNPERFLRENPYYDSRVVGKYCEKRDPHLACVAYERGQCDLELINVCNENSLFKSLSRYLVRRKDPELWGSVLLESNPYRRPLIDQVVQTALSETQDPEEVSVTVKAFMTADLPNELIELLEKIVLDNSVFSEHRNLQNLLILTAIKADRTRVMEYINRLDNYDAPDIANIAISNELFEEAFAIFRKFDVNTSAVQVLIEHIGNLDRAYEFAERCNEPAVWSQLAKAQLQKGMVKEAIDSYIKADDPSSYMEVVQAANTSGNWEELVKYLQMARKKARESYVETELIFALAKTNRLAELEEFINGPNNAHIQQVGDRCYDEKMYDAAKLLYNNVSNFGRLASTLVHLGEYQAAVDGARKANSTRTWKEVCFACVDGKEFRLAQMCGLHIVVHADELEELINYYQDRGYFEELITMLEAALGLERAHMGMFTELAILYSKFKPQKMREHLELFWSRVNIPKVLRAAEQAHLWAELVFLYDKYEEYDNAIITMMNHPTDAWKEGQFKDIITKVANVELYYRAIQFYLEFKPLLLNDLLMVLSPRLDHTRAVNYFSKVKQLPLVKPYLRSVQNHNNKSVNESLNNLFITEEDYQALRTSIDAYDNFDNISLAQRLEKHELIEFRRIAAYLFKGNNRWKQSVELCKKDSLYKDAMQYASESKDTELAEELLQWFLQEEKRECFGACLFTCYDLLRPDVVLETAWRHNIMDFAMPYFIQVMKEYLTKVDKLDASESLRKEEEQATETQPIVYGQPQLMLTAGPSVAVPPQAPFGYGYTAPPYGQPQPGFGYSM

B1: SDCBP2 39-54 (Human) (peptide)
peptide: PPPVLYPNLAELENYM
With B1, in test [1], the Kd was 2.1 µM.

B2: ARRB2 367-382 (Human) (peptide)
peptide: VPVDTNLIEFDTNYAT
B2: the Kd in test [2] turned out to be 40 µM.

B3: SDCBP2 1-16 (Human) (peptide)
peptide: MSSLYPSLEDLKVDQA
Molecule B3 displayed a dissociation constant (Kd) in test [1] of 0.29 µM.

B4: AP1B1 626-641 (Human) (peptide)
peptide: GDLLGDLLNLDLGPPVY
B4 displayed a Kd in test [2] of 300 µM.

B5: RNF11 31-56 (Human) (peptide)
peptide: EPDQEPPPPYQEQVPV
Take B5: the Kd in test [3] was 44 µM; in test [4], 13 µM.

B6: RNF11 31-65 (Human) (peptide)
peptide: EPDQEPPPPYQEQVPVPVYHPTPSQ
B6: the Kd came out at 35 µM in test [3] and 15 µM in test [4].

As a reminder, the Kd is the equilibrium constant for the complex coming apart.
